In data set [1] the target is T1, BHK cells stably transfected with human ABCG1 (Homo sapiens, UniProt P45844).
T1 construct: expressed in transfected cells; host or cells: BHK cells (stably transfected, mifepristone-inducible)
Put plainly: Cholesterol efflux assay in vitro, ABCG1. The format is cell-based. As to conditions: 18 h incubation. The method, then: (§1) Cholesterol efflux studies were performed, as described previously (25, 26). Briefly, BHK-mock and BHK stably transfected cells with human ABCA1 cDNA, ABCG1 cDNA and SR-BI cDNA were labeled for 24 h with 1 μCi/ml of ^3H-cholesterol in minimum essential medium medium plus 10% fetal calf serum. Transporters were induced with 10 nM mifepristone in Dulbecco's modified Eagle's medium (DMEM), containing 0.2 mg/ml of fatty acid-free bovine serum albumin for 18 h. Following induction of the transporters, the cells were washed and test articles were added at 0.1, 2.5, 5, 10, 20 and 40 μM in DMEM-BSA containing mifepristone. The cholesterol efflux by BSA, free 5A peptide, purified HDL, and ApoA-I were used as quality control standards. […] Radioactive counts in media and cell fractions were measured by liquid scintillation counting, and percent cholesterol effluxed was calculated by dividing media count by the sum of media and cell counts. […]
(§2) Cholesterol efflux studies were performed, as described previously (25, 26). […] Radioactive counts in media and cell fractions were measured by liquid scintillation counting, and percent cholesterol effluxed was calculated by dividing media count by the sum of media and cell counts.

Data set [2] can be described thus: Alpha-helical content by circular dichroism. The format is physicochemical. The method, then: High-density lipoprotein-like 5A-POPC and 5A-SM complexes were prepared by a co-lyophilization procedure (25, 26). Peptide and phospholipids were dissolved in glacial acetic acid and mixed at 1:1.25 w/w ratio (approximately 1:7 molar ratio) and lyophilized. The powder was hydrated with bicarbonate buffered saline and cycled between 50° C. and room temperature to facilitate 5A-lipid binding. The resulting HDL complexes were analyzed by gel permeation chromatography, with UV detection at 220 nm, using Tosoh TSK gel G3000SWx1 column (Tosoh Bioscience, King of Prussia, Pa.). The HDL hydrodynamic diameters were determined by dynamic light scattering (DLS), using a Zetasizer Nano, Malvern Instruments (Westborough, Mass.). The number and intensity average values were reported. The alpha-helical contents of free and lipid bound 5A peptide were determined by Jasco J715 (Jasco, Easton, Md.) circular dichroism spectropolarimeter. Samples at 0.1 mg/mL concentration were loaded into a quartz cuvette (d=0.2-cm path length), and CD spectra from 185 to 240 nm were recorded at 24° C. […]
High-density lipoprotein-like 5A-POPC and 5A-SM complexes were prepared by a co-lyophilization procedure (25, 26). […] The resulting HDL complexes were analyzed by gel permeation chromatography, with UV detection at 220 nm, using Tosoh TSK gel G3000SWx1 column (Tosoh Bioscience, King of Prussia, Pa.). […]

The target of data set [3] is T2, BHK cells stably transfected with human SR-BI (Homo sapiens, UniProt Q8WTV0).
T2 construct: expressed in transfected cells; host or cells: BHK cells (stably transfected, mifepristone-inducible)
T2 sequence (Q8WTV0 1-552): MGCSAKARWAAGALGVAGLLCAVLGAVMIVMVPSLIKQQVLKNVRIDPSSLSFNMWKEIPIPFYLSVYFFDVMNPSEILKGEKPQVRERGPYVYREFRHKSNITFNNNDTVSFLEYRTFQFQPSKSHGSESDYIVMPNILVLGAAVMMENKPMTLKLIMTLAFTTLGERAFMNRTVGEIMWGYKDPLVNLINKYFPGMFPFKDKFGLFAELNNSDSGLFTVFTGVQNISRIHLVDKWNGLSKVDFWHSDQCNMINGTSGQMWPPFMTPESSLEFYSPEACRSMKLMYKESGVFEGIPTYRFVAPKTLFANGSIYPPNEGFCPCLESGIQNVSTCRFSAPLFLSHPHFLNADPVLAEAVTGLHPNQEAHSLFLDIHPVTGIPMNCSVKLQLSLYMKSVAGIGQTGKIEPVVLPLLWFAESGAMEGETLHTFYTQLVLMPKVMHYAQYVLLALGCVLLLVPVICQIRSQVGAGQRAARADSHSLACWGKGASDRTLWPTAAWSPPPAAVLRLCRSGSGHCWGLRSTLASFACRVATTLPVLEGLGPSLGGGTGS
Put plainly: Cholesterol efflux assay in vitro, SR-BI. As to conditions: 18 h incubation. The format is cell-based. The method, then:
as §1, §2

The conditions of data set [4]: cited from earlier work.

Values joined by “and” are separate entries in the source; they are usually repeats but may differ in a detail not shown here. Equal values may be shown once. Read-outs that look alike come from different tables or passages of the source.

As for “DWLKAFYDKVAEKLKEAFPDWAKAAYDKAAEKAKEAA [5A, ApoA-I mimetic, 37-amino acid-long bi-helical peptide]”, the “cholesterol efflux via ABCG1” value in data set [1] is “relatively low cholesterol efflux”. Besides, the “Helicity (%)” value in data set [2] (Example 1, 0.1 mg/mL, 24° C.) was 19% and 18.9%. The substance also came in with an alpha-helix content in data set [2] (Example 2, n=3, mean±SD) of 18.8±0.3%. The “cholesterol efflux via SR-BI” value in data set [3] is listed as “relatively low cholesterol efflux”.

Regarding “apoA-I: the main protein in High Density Lipoprotein (HDL)”, the helicity result in data set [4] (associated with lipids) was “over 80%”; in data set [4] (lipid-free state) it was “about 20%”.

Source of the values: patent US20160074473A1, “EFFECT OF PHOSPHOLIPID COMPOSITION OF RECONSTITUTED HDL ON ITS CHOLESTEROL EFFLUX AND ANTI-INFLAMMATORY PROPERTIES” (Kinemed, Inc., priority 2014, published 2016).
